Reference: US20140205597A1 (published 2014)

Key:
[1] = molecular target: T1, monoclonal antibody 21-4-3; assay: Biacore, captured 21-4-3
T1 construct: mouse IgG1 heavy chain, kappa light chain; also called mAb21-4-3; produced by hybridoma ABH0015 (LMBP-9680-CB)
Experimental: Binding measurements were performed using a Biacore T100 using a CM5 T120416 sensor chip, with running buffer HBS-EP+, 25° C. […] The anti-mouse IgG used was a polyclonal rabbit anti-mouse IgG antibodies reacting with all IgG subclasses, IgA and IgM (GE Healthcare; Cat#BR-1008-38; Lot#10056316). Immobilisation of the anti-mouse IgG was performed using manual amine coupling using a 7 minute injection of EDC/NHS for activation and a 7 minute injection of 1M ethanolamine HCl pH 8.5 for deactivation (Biacore, amine coupling kit).

[2] = molecular target: T2, purified interference factor(s) from serum of Donor A; assay: Biacore, immobilized interference factor
T2 construct: text names Donors 8, 19 and 30

[3] = molecular target: T3, purified interference factor(s) from serum of Donor B; assay: Biacore, immobilized interference factor
T3 construct: text names Donors 8, 19 and 30

[4] = molecular target: T4, purified interference factor(s) from serum of Donor C; assay: Biacore, immobilized interference factor
T4 construct: text names Donors 8, 19 and 30

Binder | binding vs Reference Sequence (=100%) [1] | binding vs Reference Sequence (=100%) [2] | binding vs Reference Sequence (=100%) [3] | binding vs Reference Sequence (=100%) [4]
SEQ ID NO 43 (bispecific antibody, Nanobody construct; C-terminal: A) DVQLVESGGGLVQPGGSLRLSCAASGFILDYYAIGWFRQAPGKEREGVLCIDASDDITYYADSVKGRFTISRDNSKNTVYLQMNSLRPEDTAVYYCATPIGLSSSCLLEYDYDYWGQGTLVTVSSGGGGSGGGSEVQLLESGGGLVQPGGSLRLSCAASGFTFRSFGMSWVRQAPGKGPEWVSSISGSGSDTLYADSVKGRFTISRDNSKNTLYLQMNSLRPEDTAVYYCTIGGSLSRSSQGTLVTVSSA | 3% | 3% | 20% | 
SEQ ID NO 45 (VHH, mutations: P14A, P41T, S62F, S74A, S82bN, R83K, L108Q) VHH: EVQLVESGGGLVQAGGSLRLSCAASRSIGRLDRMGWYRHRTGEPRELVATITGGSSINYGDFVKGRFTISIDNAKNTVYLQMNNLKPEDTAVYYCNFNKYVTSRDTWGQGTQVTVSS | 22% | 0% |  | 
SEQ ID NO 46 (VHH, C-terminal tag) VHH: EVQLVESGGGLVQAGGSLRLSCAASRSIGRLDRMGWYRHRTGEPRELVATITGGSSINYGDFVKGRFTISIDNAKNTVYLQMNNLKPEDTAVYYCNFNKYVTSRDTWGQGTQVTVSS | 2% | 0% |  | 
SEQ ID NO 71 (VHH, S113G) VHH: EVQLVESGGGLVQPGGSLRLSCAASRSIGRLDRMGWYRHRPGEPRELVATITGGSSINYGDSVKGRFTISIDNSKNTVYLQMNSLRPEDTAVYYCNFNKYVTSRDTWGQGTLVTVSG | 44% | 88% | 105% | 87%
SEQ ID NO 66 (VHH, L11S) VHH: EVQLVESGGGSVQPGGSLRLSCAASRSIGRLDRMGWYRHRPGEPRELVATITGGSSINYGDSVKGRFTISIDNSKNTVYLQMNSLRPEDTAVYYCNFNKYVTSRDTWGQGTLVTVSS | 48% | 81% | 29% | 84%
SEQ ID NO 80 (VHH, T110Q, S112G, S113G) VHH: EVQLVESGGGLVQPGGSLRLSCAASRSIGRLDRMGWYRHRPGEPRELVATITGGSSINYGDSVKGRFTISIDNSKNTVYLQMNSLRPEDTAVYYCNFNKYVTSRDTWGQGTLVQVGG | 51% | 65% | 5% | 58%
SEQ ID NO 70 (VHH, T110Q) VHH: EVQLVESGGGLVQPGGSLRLSCAASRSIGRLDRMGWYRHRPGEPRELVATITGGSSINYGDSVKGRFTISIDNSKNTVYLQMNSLRPEDTAVYYCNFNKYVTSRDTWGQGTLVQVSS | 106% | 90% | 105% | 98%
SEQ ID NO 84 (VHH, S112G) VHH: EVQLVESGGGLVQPGGSLRLSCAASRSIGRLDRMGWYRHRPGEPRELVATITGGSSINYGDSVKGRFTISIDNSKNTVYLQMNSLRPEDTAVYYCNFNKYVTSRDTWGQGTLVTVGS | 91% | 84% | 50% | 83%
SEQ ID NO 67 (VHH, R83K) VHH: EVQLVESGGGLVQPGGSLRLSCAASRSIGRLDRMGWYRHRPGEPRELVATITGGSSINYGDSVKGRFTISIDNSKNTVYLQMNSLKPEDTAVYYCNFNKYVTSRDTWGQGTLVTVSS | 101% | 102% | 117% | 96%
SEQ ID NO 65 (VHH, P14A) VHH: EVQLVESGGGLVQAGGSLRLSCAASRSIGRLDRMGWYRHRPGEPRELVATITGGSSINYGDSVKGRFTISIDNSKNTVYLQMNSLRPEDTAVYYCNFNKYVTSRDTWGQGTLVTVSS | 23% | 73% | 121% | 64%
SEQ ID NO 81 (VHH, L11V) VHH: EVQLVESGGGVVQPGGSLRLSCAASRSIGRLDRMGWYRHRPGEPRELVATITGGSSINYGDSVKGRFTISIDNSKNTVYLQMNSLRPEDTAVYYCNFNKYVTSRDTWGQGTLVTVSS | 75% | 94% | 50% | 89%
SEQ ID NO 68 (VHH, P14A, L108Q) VHH: EVQLVESGGGLVQAGGSLRLSCAASRSIGRLDRMGWYRHRPGEPRELVATITGGSSINYGDSVKGRFTISIDNSKNTVYLQMNSLRPEDTAVYYCNFNKYVTSRDTWGQGTQVTVSS | 26% | 38% | 115% | 49%
SEQ ID NO 72 (VHH, S112G, S113G) VHH: EVQLVESGGGLVQPGGSLRLSCAASRSIGRLDRMGWYRHRPGEPRELVATITGGSSINYGDSVKGRFTISIDNSKNTVYLQMNSLRPEDTAVYYCNFNKYVTSRDTWGQGTLVTVGG | 45% | 70% | 47% | 56%
SEQ ID NO 69 (VHH, L108Q) VHH: EVQLVESGGGLVQPGGSLRLSCAASRSIGRLDRMGWYRHRPGEPRELVATITGGSSINYGDSVKGRFTISIDNSKNTVYLQMNSLRPEDTAVYYCNFNKYVTSRDTWGQGTQVTVSS | 106% | 80% | 120% | 84%
SEQ ID NO 83 (VHH, T87A) VHH: EVQLVESGGGLVQPGGSLRLSCAASRSIGRLDRMGWYRHRPGEPRELVATITGGSSINYGDSVKGRFTISIDNSKNTVYLQMNSLRPEDAAVYYCNFNKYVTSRDTWGQGTLVTVSS | 79% | 56% | 73% | 61%
SEQ ID NO 82 (VHH, P84A) VHH: EVQLVESGGGLVQPGGSLRLSCAASRSIGRLDRMGWYRHRPGEPRELVATITGGSSINYGDSVKGRFTISIDNSKNTVYLQMNSLRAEDTAVYYCNFNKYVTSRDTWGQGTLVTVSS | 56% | 96% | 80% | 100%
SEQ ID NO 78 (VHH, Q13R) VHH: EVQLVESGGGLVRPGGSLRLSCAASRSIGRLDRMGWYRHRPGEPRELVATITGGSSINYGDSVKGRFTISIDNSKNTVYLQMNSLRPEDTAVYYCNFNKYVTSRDTWGQGTLVTVSS | 1% | 96% | 96% | 100%
SEQ ID NO 42 (VHH, Nanobody construct; C-terminal: A) EVQLVESGGGLVQPGGSLRLSCAASGRTFSYNPMGWFRQAPGKGRELVAAISRTGGSTYYPDSVEGRFTISRDNAKRMVYLQMNSLRAEDTAVYYCAAAGVRAEDGRVRTLPSEYTFWGQGTQVTVSSAAAEVQLVESGGGLVQPGGSLRLSCAASGRTFSYNPMGWFRQAPGKGRELVAAISRTGGSTYYPDSVEGRFTISRDNAKRMVYLQMNSLRAEDTAVYYCAAAGVRAEDGRVRTLPSEYTFWGQGTQVTVSSA | 0% | 1% | 4% | 
SEQ ID NO 47 (VHH) VHH: EVQLVESGGGLVQPGGSLRLSCAASGSVFKINVMAWYRQAPGKGRELVAGIISGGSTSYADSVKGRFTISRDNAKNTLYLQMNSLRPEDTAVYYCAFITTESDYDLGRRYWGQGTLVTVSS | 4% | 1% |  | 
SEQ ID NO 38 (bispecific antibody, Nanobody construct; C-terminal: A) EVQLVESGGGLVQPGGSLRLSCAASGFTFSSYAMSWVRQAPGKGLEWVSGIKSSGDSTRYAGSVKGRFTISRDNAKNTLYLQMNSLRPEDTAVYYCAKSRVSRTGLYTYDNRGQGTLVTVSSGGGGSGGGGSGGGGSGGGGSEVQLVESGGGLVQPGGSLRLSCAASGRTFNNYAMGWFRQAPGKEREFVAAITRSGVRSGVSAIYGDSVKDRFTISRDNAKNTLYLQMNSLRPEDTAVYYCAASAIGSGALRRFEYDYSGQGTLVTVSSA | 0% | 9% | 25% | 7%
SEQ ID NO 48 (VHH) VHH: EVQLVESGGGLVQPGGSLRLSCIASGLPFSTKSMGWFRQAPGKEREFVARISPGGTSRYYGDFVKGRFAISRDNAKNTTWLQMNSLKAEDTAVYYCASGERSTYIGSNYYRTNEYDYWGTGTQVTVSS | 3% | 0% |  | 
SEQ ID NO 49 (VHH, C-terminal tag plus humanizing mutations) VHH: EVQLLESGGGLVQPGGSLRLSCAASGLPFSTKSMGWFRQAPGKGREFVSRISPGGTSRYYGDFVKGRFTISRDNSKNTLYLQMNSLRAEDTAVYYCASGERSTYIGSNYYRTNEYDYWGQGTLVTVSS | 4% | 0% |  | 
